Among the data in US20250213627A1, “RECOMBINANT MICROORGANISM-BASED METHODS AND COMPOSITIONS FOR TREATMENT OF DISEASE” (Baylor College of Medicine, priority 2021, published 2025) are selectivity for Kv1.3 over other channels (whole-cell patch-clamp) values, retold here.

This assay concerns the target other channels. Briefly: cell-based or functional assay.

B1: synthetic ShK-235 (peptide)
peptide: RSCIDTIPKSRCTAFKCKHSIKYRLSFCRKTCGTCA
modifications: here or on the partner: 3 disulfide bonds (oxidatively folded synthetic peptide)
As to B1, the selectivity for Kv1.3 over other channels (whole-cell patch-clamp) is greater than 2200 fold.
